In patent US6965850B2, “Methods for modulating nuclear receptor coactivator binding” (The Regents of the University of California, priority 1998, dated 2005):
Ends that are not written are not given here.

Columns and labels:
hTRβ LBD [1] = target: T1, hTRβ LBD (Homo sapiens, UniProt P10828); test: Peptide competition of GRIP1 (563-767) interaction with hTRβ LBD; format: binding; design: made in house; host or cells: TR LBD: in vitro translation (reticulocyte lysate); GST-GRIP1 fragment: E. coli HB101
T1 sequence (P10828 202-461): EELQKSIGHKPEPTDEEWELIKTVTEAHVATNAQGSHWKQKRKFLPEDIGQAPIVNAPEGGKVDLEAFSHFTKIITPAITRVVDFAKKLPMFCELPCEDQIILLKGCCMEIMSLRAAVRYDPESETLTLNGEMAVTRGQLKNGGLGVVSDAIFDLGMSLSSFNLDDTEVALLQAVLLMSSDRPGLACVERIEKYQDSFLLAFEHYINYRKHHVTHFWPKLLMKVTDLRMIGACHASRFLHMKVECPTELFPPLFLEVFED
Description: (§1) For in vitro binding studies GR, TR and their derivatives were translated in the presence of [^35S]methionine using the TNT Coupled Reticulocyte System (Promega). Separate translations were performed in the presence and absence of 10 μM dexamethasone or 1 μM RU486 for GR and 10 μM triiodothyronine for TR. Expression was quantified by phosphoimager analysis (BAS2000, Fuji). For all binding assays 50 μl of a 20% bead suspension containing either 1.6 or 4.0 μM bound purified GST GRIP1 fragment (either 568-767 or 563-1121) was incubated with 0.2 μl or 1.4 μl in vitro transcribed and translated TR or GR, respectively. Binding was performed in the binding buffer described above supplemented with 20 μg/ml BSA and appropriate hormone. The chosen GST GRIP1 fragment concentrations were sufficient to bind either 70 or 100% of the TR derivatives. The reaction was incubated at 4° C. under rotation for 2 hours. In case of competition experiments, the appropriate concentration of peptides were added to the reaction before addition of receptors. However, no differences in the results were noted by adding the peptides after half of the incubation of the GST GRIP1 fragment with nuclear receptors. […] Beads were washed five times with 200 μl binding buffer+BSA at 4° C. before elution of the bound proteins in 20 μl SDS loading buffer. Eluted beads and input labeled protein were subjected to SDS-PAGE. The fraction of bound nuclear receptors was determined by phosphoimager analysis.

hERα-LBD = target: T2, hERα-LBD (Homo sapiens, UniProt P03372); test: Electrophoretic mobility shift assay with purified hERα-LBD; format: binding; details: 2-fold or 10-fold molar excess of peptide, 6% native PAGE
T2 construct: made in house; host or cells: E. coli BL21(DE3)pLysS
T2 sequence (P03372 297-554): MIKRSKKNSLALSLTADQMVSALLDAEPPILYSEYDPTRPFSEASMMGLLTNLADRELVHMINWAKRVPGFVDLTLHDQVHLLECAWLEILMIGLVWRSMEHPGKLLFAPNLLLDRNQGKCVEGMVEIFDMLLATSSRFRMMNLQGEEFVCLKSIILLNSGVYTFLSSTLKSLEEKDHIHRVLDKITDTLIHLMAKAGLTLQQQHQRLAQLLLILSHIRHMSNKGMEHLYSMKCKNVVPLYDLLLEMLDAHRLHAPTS
Description: An electrophoretic mobility shift assay was used to directly assess the ability of the NR-box 2 peptide to bind the purified ERα LBD in the presence of either DES or OHT. Eight microgram samples of purified hERα-LBD bound to either DES or OHT were incubated in the absence of the peptide, i.e., buffer alone, or in the presence of either a 2-fold or 10-fold molar excess of the GRIP1 NR-box 2 peptide. The binding reactions were performed on ice for 45 minutes in 10 μl of buffer containing 20 mM Tris, pH 8.1, 1 mM DTT, and 200 mM NaCl and then subjected to 6% native PAGE. Gels were stained with GELCODE Blue Stain reagent (Pierce).

GR = test: GST-GRIP1 fragment pull-down of GR; format: binding
Description: as §1

hTRβ LBD [2] = target: T1, hTRβ LBD; test: GST-GRIP1 fragment pull-down of TR; format: binding; design: made in house; host or cells: in vitro translation (TNT Coupled Reticulocyte System, Promega)
Description: For in vitro binding studies GR, TR and their derivatives were translated in the presence of [^35S]methionine using the TNT Coupled Reticulocyte System (Promega). Separate translations were performed in the presence and absence of 10 μM dexamethasone or 1 μM RU486 for GR and 10 μM triiodothyronine for TR. Expression was quantified by phosphoimager analysis (BAS2000, Fuji). For all binding assays 50 μl of a 20% bead suspension containing either 1.6 or 4.0 μM bound purified GST GRIP1 fragment (either 568-767 or 563-1121) was incubated with 0.2 μl or 1.4 μl in vitro transcribed and translated TR or GR, respectively. Binding was performed in the binding buffer described above supplemented with 20 μg/ml BSA and appropriate hormone. The chosen GST GRIP1 fragment concentrations were sufficient to bind either 70 or 100% of the TR derivatives. The reaction was incubated at 4° C. under rotation for 2 hours. In case of competition experiments, the appropriate concentration of peptides were added to the reaction before addition of receptors. However, no differences in the results were noted by adding the peptides after half of the incubation of the GST GRIP1 fragment with nuclear receptors. […] The fraction of bound nuclear receptors was determined by phosphoimager analysis.

hERα V376R mutant = target: T3, hERα V376R mutant (Homo sapiens, UniProt P03372, V376R); test: In vitro binding of [35S]-labeled hERα mutant to GST-GRIP1; details: percentage of WT hERα
T3 construct: expression vector encoding full-length hERα, pSG5-er HEGO (WT or mutants); made in house; host or cells: hERα: in vitro translation implied by the [35S] label; GST-GRIP1: E. coli HB101
T3 sequence (P03372 1-595 V376R): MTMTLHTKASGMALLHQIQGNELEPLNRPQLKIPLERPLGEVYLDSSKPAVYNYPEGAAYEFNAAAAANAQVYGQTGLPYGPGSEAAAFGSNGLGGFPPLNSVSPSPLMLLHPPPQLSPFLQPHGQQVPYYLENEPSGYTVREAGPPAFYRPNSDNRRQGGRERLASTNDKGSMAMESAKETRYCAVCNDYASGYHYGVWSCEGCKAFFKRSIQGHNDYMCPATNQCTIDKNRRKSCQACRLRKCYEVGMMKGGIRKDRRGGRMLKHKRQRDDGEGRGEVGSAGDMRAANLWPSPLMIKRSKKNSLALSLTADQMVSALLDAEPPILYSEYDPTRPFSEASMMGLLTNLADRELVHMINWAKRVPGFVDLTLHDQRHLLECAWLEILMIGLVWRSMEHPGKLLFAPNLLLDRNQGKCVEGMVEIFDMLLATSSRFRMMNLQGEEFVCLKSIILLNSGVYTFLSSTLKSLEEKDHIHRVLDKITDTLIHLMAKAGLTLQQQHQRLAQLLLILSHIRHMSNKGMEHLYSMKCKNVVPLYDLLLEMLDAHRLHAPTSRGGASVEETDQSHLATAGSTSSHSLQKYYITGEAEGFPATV
Description: Beads were washed 3 times with 1 ml of binding buffer and the bound proteins were separated using 10% SDS-PAGE and visualized by autoradiography. Binding was quantitated by phosphorimaging using ImageQuant (Molecular Dynamics).

TAFII31 = target: T4, TAFII31 (Homo sapiens, UniProt Q16594); test: GRIP1 interaction with TAFII31; format: binding; details: data not shown
T4 sequence (Q16594 1-264): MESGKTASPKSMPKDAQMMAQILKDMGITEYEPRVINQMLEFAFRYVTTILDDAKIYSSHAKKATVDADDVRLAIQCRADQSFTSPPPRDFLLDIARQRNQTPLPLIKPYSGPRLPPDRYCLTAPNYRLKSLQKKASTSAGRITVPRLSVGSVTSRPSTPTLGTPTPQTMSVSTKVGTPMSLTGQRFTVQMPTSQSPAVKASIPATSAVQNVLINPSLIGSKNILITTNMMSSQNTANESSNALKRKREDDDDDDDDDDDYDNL

MDM2 = MDM2 (Homo sapiens, UniProt Q00987); test: GRIP1 interaction with MDM2; format: binding; details: data not shown
Chain of MDM2 (Q00987 whole entry, species assumed): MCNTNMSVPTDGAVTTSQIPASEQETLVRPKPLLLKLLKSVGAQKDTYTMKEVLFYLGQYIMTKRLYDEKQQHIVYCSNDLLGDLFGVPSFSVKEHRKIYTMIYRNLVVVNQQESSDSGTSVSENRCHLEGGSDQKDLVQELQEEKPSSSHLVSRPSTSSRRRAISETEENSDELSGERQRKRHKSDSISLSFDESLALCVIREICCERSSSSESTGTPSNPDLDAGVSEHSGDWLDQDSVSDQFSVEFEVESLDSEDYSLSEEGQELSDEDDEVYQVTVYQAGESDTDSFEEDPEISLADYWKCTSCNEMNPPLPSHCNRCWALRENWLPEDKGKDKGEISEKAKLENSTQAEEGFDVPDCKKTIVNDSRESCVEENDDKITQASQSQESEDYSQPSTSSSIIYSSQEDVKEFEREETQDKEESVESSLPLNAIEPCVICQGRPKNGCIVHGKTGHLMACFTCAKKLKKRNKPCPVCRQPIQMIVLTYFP

Molecule: KENALLRYLLDKDDTKD
- competition with TR LBD interaction with GRIP1 (563-767) (hTRβ LBD [1]): increased affinity

Molecule: LLRYLL (listed as Homo sapiens) [minimal motif of NR-box 3]
- competition with TR LBD interaction with GRIP1 (563-767) (hTRβ LBD [1]): does not compete

Molecule: TSLKEKHKLLRYLLQDSS
- competition with TR LBD interaction with GRIP1 (563-767) (hTRβ LBD [1]): binds like a NR-box 2 peptide

Molecule: 686-KHKILHRLLQDSS-698 (not fully specified; printed as 686-KHKILHRLLQDSS-698; listed as Homo sapiens) [GRIP1 NR-box 2 peptide]
- migration of DES-hERα-LBD complex in presence of peptide (hERα-LBD): retarded
- mobility of OHT-hERα-LBD complex on peptide addition (hERα-LBD): no effect

Molecule: ILHRLL (MUTAGEN (15)..(15) Ile --> Ala; listed as Homo sapiens) [peptide consisting of the NR-box 2]
- competition with TR LBD interaction with GRIP1 (563-767) (hTRβ LBD [1]): does not sufficiently compete

Molecule: TSLKEKHKILHRLLQDS
- competition with TR LBD interaction with GRIP1 (563-767) (hTRβ LBD [1]): increased affinity

Molecule: NR-box 3: GST-GRIP1 (563-767) with hydrophobic residues of NR-box 2 replaced with alanine; NR-box 3 functional (ENALLRYLLDKDD)
- binding of GR to GRIP1 fragment (GR): binds most strongly
- loss of TR binding (hTRβ LBD [2]; hydrophobic residues of the NR-box replaced with alanine): about 50%

Molecule: PKKKENALLRYLLDKDDTKD
- competition with TR LBD interaction with GRIP1 (563-767) (hTRβ LBD [1]): increased affinity

B1: GRIP1 (563-767): fragment of GRIP1 containing all three NR-boxes, used as GST-fusion (protein)
chain: QNSPVNMNPPPLSKMGSLDSKDCFGLYGEPSEGTTGQAEASCHPEEQKGPNDSSMPQAASGDRAEGHSRLHDSKGQTKLLQLLTTKSDQMEPSPLPSSLSDTNKDSTGSLPGPGSTHGTSLKEKHKILHRLLQDSSSPVDLAKLTAEATGKELSQESSSTAPGSEVTVKQEPASPKKKENALLRYLLDKDDTKDIGLPEITPKLEHHHHHH
modifications: left off: a dimerising Fc or GST
notes: fragment of GRIP1 containing all three NR-boxes, used as GST-fusion
- affinity of GR for GRIP1 (563-767) relative to a comparable amount of TR (GR): about one-fifth
- binding of GR to GRIP1 fragment (GR): found to bind
- binding of TR to GST-GRIP1 (563-767) fragment (hTRβ LBD [2]; NR-box hydrophobic residues replaced with alanine where mutant): strongly binds TR

B2: GRIP1: mouse p160 coactivator protein (protein)
chain: QNSPVNMNPPPLSKMGSLDSKDCFGLYGEPSEGTTGQAEASCHPEEQKGPNDSSMPQAASGDRAEGHSRLHDSKGQTKLLQLLTTKSDQMEPSPLPSSLSDTNKDSTGSLPGPGSTHGTSLKEKHKILHRLLQDSSSPVDLAKLTAEATGKELSQESSSTAPGSEVTVKQEPASPKKKENALLRYLLDKDDTKDIGLPEITPKLE
- residual GRIP1 binding (hERα V376R mutant): 10%
- interaction with TAFII31 (TAFII31): no interaction was detected
- interaction with MDM2 (MDM2): no interaction was detected

B3: GRIP1 (563-1121): GRIP1 (563-767) extended to residue 1121, GST fragment (protein)
chain: QNSPVNMNPPPLSKMGSLDSKDCFGLYGEPSEGTTGQAEASCHPEEQKGPNDSSMPQAASGDRAEGHSRLHDSKGQTKLLQLLTTKSDQMEPSPLPSSLSDTNKDSTGSLPGPGSTHGTSLKEKHKILHRLLQDSSSPVDLAKLTAEATGKELSQESSSTAPGSEVTVKQEPASPKKKENALLRYLLDKDDTKDIGLPEITPKLERLDSKTDPASNTKLIAMKTVKEEVSFEPSDQPGSELDNLEEILDDLQNSQLPQLFPDTRPGAPTGSVDKQAIINDLMQLTADSSPVPPAGAQKAALRMSQSTFNNPRPGQLGRLLPNQNLPLDITLQSPTGAGPFPPIRNSSPYSVIPQPGMMGNQGMLGSQGNLGNNSTGMIGSSTSRPSMPSGEWAPQSPAVRVTCAATTGAMNRPVQGGMIRNPTASIPMRANSQPGQRQMLQSQVMNIGPSELEMNMGGPQYNQQQAPPNQTAPWPESILPIDQASFASQNRQPFGSSPDDLLCPHPAAESPSDEGALLDQLYLALRNFDGLEEIDRALGIPELVSQSQAVDAEQFSSQE
modifications: left off: a dimerising Fc or GST
notes: GRIP1 (563-767) extended to residue 1121, GST fragment
- increase of binding to GR on extension of GRIP1 (563-767) to residue 1121 (GR): about 3 fold
- increase of binding of GR to GRIP1 (563-1121) in the absence of ligand (GR; GR deletion mutant lacking N-terminal AF-1 versus full length GR, no ligand): about 10 fold
